Laboratory results: IntAct's records for PubMed 31515488

B1: Radial spoke head protein 3 homolog (Homo sapiens), Q86UC2 (parent)
chain: MTVKPAKAASLARNLAKRRRTYLGGAAGRSQEPEVPCAAVLPGKPGDRNCPEFPPPDRTLGCWATDAAPAAGLCGAGSEPSIAPTSCAGNLPSRPPPLLSPLLASRNPCPWHYLHLSGSHNTLAPTCFKAKLHRKRGSQPPDMASALTDRTSRAPSTYTYTSRPRALPCQRSRYRDSLTQPDEEPMHYGNIMYDRRVIRGNTYALQTGPLLGRPDSLELQRQREARKRALARKQAQEQLRPQTPEPVEGRKHVDVQTELYLEEIADRIIEVDMECQTDAFLDRPPTPLFIPAKTGKDVATQILEGELFDFDLEVKPVLEVLVGKTIEQSLLEVMEEEELANLRASQREYEELRNSERAEVQRLEEQERRHREEKERRKKQQWEIMHKHNETSQKIAARAFAQRYLADLLPSVFGSLRDSGYFYDPIERDIEIGFLPWLMNEVEKTMEYSMVGRTVLDMLIREVVEKRLCMYEHGEDTHQSPEPEDEPGGPGAMTESLEASEFLEQSMSQTRELLLDGGYLQRTTYDRRSSQERKFMEERELLGQDEETAMRKSLGEEELS
partner: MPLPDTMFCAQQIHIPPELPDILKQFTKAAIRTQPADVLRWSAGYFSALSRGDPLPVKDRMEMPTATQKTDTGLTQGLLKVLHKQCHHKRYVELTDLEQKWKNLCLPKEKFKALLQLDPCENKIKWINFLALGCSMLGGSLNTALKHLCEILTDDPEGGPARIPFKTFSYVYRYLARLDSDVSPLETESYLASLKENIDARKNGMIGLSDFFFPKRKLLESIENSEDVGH

Variants of: B1
Details: with rop1l_human ROPN1L

Effect of a mutation on the interaction, with no effect:
MTVKPAKAASLARNLAKRRRTYLGGAAGRSQEPEVPCAAVLPGKPGDRNCPEFPPPDRTLGCWATDAAPAAGLCGAGSEPSIAPTSCAGNLPSRPPPLLSPLLASRNPCPWHYLHLSGSHNTLAPTCFKAKLHRKRGSQPPDMASALTDRTSRAPSTYTYTSRPRALPCQRSRYRDSLTQPDEEPMHYGNIMYDRRVIRGNTYALQTGPLLGRPDSLELQRQREARKRALARKQAQEQLRPQTPEPVEGRKHVDVQTELYLEEIADRIIEVDMECQTDAFLDRPPTPLFIPAKTGKDVATQILEGELFDFDLEVKPVLEVLVGKTIEQSLLEVMEEEELANLRASQREYEELRNSERAEVQRLEEQERRHREEKERRKKQQWEIMHKHNETSQKIAAQAFAQRYLADLLPSVFGSLRDSGYFYDPIERDIEIGFLPWLMNEVEKTMEYSMVGRTVLDMLIREVVEKRLCMYEHGEDTHQSPEPEDEPGGPGAMTESLEASEFLEQSMSQTRELLLDGGYLQRTTYDRRSSQERKFMEERELLGQDEETAMRKSLGEEELS [R398Q]
MTVKPAKAASLARNLAKRRRTYLGGAAGRSQEPEVPCAAVLPGKPGDRNCPEFPPPDRTLGCWATDAAPAAGLCGAGSEPSIAPTSCAGNLPSRPPPLLSPLLASRNPCPWHYLHLSGSHNTLAPTCFKAKLHRKRGSQPPDMASALTDRTSRAPSTYTYTSRPRALPCQRSRYRDSLTQPDEEPMHYGNIMYDRRVIRGSTYALQTGPLLGRPDSLELQRQREARKRALARKQAQEQLRPQTPEPVEGRKHVDVQTELYLEEIADRIIEVDMECQTDAFLDRPPTPLFIPAKTGKDVATQILEGELFDFDLEVKPVLEVLVGKTIEQSLLEVMEEEELANLRASQREYEELRNSERAEVQRLEEQERRHREEKERRKKQQWEIMHKHNETSQKIAARAFAQRYLADLLPSVFGSLRDSGYFYDPIERDIEIGFLPWLMNEVEKTMEYSMVGRTVLDMLIREVVEKRLCMYEHGEDTHQSPEPEDEPGGPGAMTESLEASEFLEQSMSQTRELLLDGGYLQRTTYDRRSSQERKFMEERELLGQDEETAMRKSLGEEELS [N201S]
MTVKPAKAASLARNLAKRRRTYLGGAAGRSQEPEVPCAAVLPGKPGDRNCPEFPPPDRTLGCWATDAAPAAGLCGAGSEPSIAPTSCAGNLPSRPPPLLSPLLASRNPCPWHYLHLSGSHNTLAPTCFKAKLHRKRGSQPPDMASALTDRTSRAPSTYTYTSRPRALPCQRSRYRDSLTQPDEEPMHYGNIMYDRRVIRGNTYALQTGPLLGWPDSLELQRQREARKRALARKQAQEQLRPQTPEPVEGRKHVDVQTELYLEEIADRIIEVDMECQTDAFLDRPPTPLFIPAKTGKDVATQILEGELFDFDLEVKPVLEVLVGKTIEQSLLEVMEEEELANLRASQREYEELRNSERAEVQRLEEQERRHREEKERRKKQQWEIMHKHNETSQKIAARAFAQRYLADLLPSVFGSLRDSGYFYDPIERDIEIGFLPWLMNEVEKTMEYSMVGRTVLDMLIREVVEKRLCMYEHGEDTHQSPEPEDEPGGPGAMTESLEASEFLEQSMSQTRELLLDGGYLQRTTYDRRSSQERKFMEERELLGQDEETAMRKSLGEEELS [R213W]
MTVKPAKAASLARNLAKRRRTYLGGAAGRSQEPEVPCAAVLPGKPGDRNCPEFPPPDRTLGCWATDAAPAAGLCGAGSEPSIAPTSCAGNLPSRPPPLLSPLLASRNPCPWHYLHLSGSHNTLAPTCFKAKLHRKRGSQPPDMASALTDRTSRAPSTYTYTSRPRALPCQRSRYRDSLTQPDEEPMHYGNIMYDRRVIRGNTYALQTGPLLGQPDSLELQRQREARKRALARKQAQEQLRPQTPEPVEGRKHVDVQTELYLEEIADRIIEVDMECQTDAFLDRPPTPLFIPAKTGKDVATQILEGELFDFDLEVKPVLEVLVGKTIEQSLLEVMEEEELANLRASQREYEELRNSERAEVQRLEEQERRHREEKERRKKQQWEIMHKHNETSQKIAARAFAQRYLADLLPSVFGSLRDSGYFYDPIERDIEIGFLPWLMNEVEKTMEYSMVGRTVLDMLIREVVEKRLCMYEHGEDTHQSPEPEDEPGGPGAMTESLEASEFLEQSMSQTRELLLDGGYLQRTTYDRRSSQERKFMEERELLGQDEETAMRKSLGEEELS [R213Q]
MTVKPAKAASLARNLAKRRRTYLGGAAGRSQEPEVPCAAVLPGKPGDRNCPEFPPPDRTLGCWATDAAPAAGLCGAGSEPSIAPTSCAGNLPSRPPPLLSPLLASRNPCPWHYLHLSGSHNTLAPTCFKAKLHRKRGSQPPDMASALTDRTSRAPSTYTYTSRPRALPCQRSRYRDSLTQPDEEPMHYGNIMYDRRVIRGNTYALQTGPLLGRPDSLELQRQREARKRALARKQAQEQLRPQTPEPVEGRKHVDVQTELYLEEIADRIIEVDMECQTDAFLDRPPTPLFIPAKTGKDVATQILEGELFDFDLEVKPVLEVLVGKTIEQSLLEVMEEEELANLRASQREYEELRNSERAEVQRLEEQERRHREEKERRKKQQWEIMHKHNETSQKIAARAFAQRYLADLLPSVFGSLRDSGYFYDPIERDIEIGFLPWLTNEVEKTMEYSMVGRTVLDMLIREVVEKRLCMYEHGEDTHQSPEPEDEPGGPGAMTESLEASEFLEQSMSQTRELLLDGGYLQRTTYDRRSSQERKFMEERELLGQDEETAMRKSLGEEELS [M439T]
MTVKPAKAASLARNLAKRRRTYLGGAAGRSQEPEVPCAAVLPGKPGDRNCPEFPPPDRTLGCWATDAAPAAGLCGAGSEPSIAPTSCAGNLPSRPPPLLSPLLASRNPCPWHYLHLSGSHNTLAPTCFKAKLHRKRGSQPPDMASALTDRTSRAPSTYTYTSRPRALPCQRSRYRDSLTQPDEEPMHYGNIMYDRRVIRGNTYALQTGPLLGRPDSLELQRQREARKRALARKQAQEQLRPQTPEPVEGRKHVDVQTELYLEEIADRIIEVDMECQTDAFLDRPPTPLFIPAKTGKDVATQILEGELFDFDLEVKPVLEVLVGKTIEQSLLEVMEEEELANLRASQREYEELRNSERAEVQRLEEQERRHREEKERRKKQQWEIMHKHNETSQKIAARAFAQRYLADLLPSVFGSLRDSGYFYDPIERDIEIGFLPWLMNEVEKTMEYSMVGRTVLDMLIREVVEKRLCMYEHGEDTHQSPEPKDEPGGPGAMTESLEASEFLEQSMSQTRELLLDGGYLQRTTYDRRSSQERKFMEERELLGQDEETAMRKSLGEEELS [E484K]
